The record followed here is patent US20260297144 (published 2026).

Broadly, the Kd is the equilibrium constant for the complex coming apart.

Positions count from the first letter of the chain named.

The target in assay [1] is T1, C3b (human, UniProt P01024). The assay is described as follows: SPR steady state, Fc 3-1, 10C.
Assay [2] deals with T1, C3b. The assay is described as follows: SPR steady state, Fc 4-1, 10C.
In assay [3] the target is T1, C3b. Nature of the assay: SPR steady state, Fc 2-1, 10C.

T1 sequence (P01024 23-667, chain 1 of 2): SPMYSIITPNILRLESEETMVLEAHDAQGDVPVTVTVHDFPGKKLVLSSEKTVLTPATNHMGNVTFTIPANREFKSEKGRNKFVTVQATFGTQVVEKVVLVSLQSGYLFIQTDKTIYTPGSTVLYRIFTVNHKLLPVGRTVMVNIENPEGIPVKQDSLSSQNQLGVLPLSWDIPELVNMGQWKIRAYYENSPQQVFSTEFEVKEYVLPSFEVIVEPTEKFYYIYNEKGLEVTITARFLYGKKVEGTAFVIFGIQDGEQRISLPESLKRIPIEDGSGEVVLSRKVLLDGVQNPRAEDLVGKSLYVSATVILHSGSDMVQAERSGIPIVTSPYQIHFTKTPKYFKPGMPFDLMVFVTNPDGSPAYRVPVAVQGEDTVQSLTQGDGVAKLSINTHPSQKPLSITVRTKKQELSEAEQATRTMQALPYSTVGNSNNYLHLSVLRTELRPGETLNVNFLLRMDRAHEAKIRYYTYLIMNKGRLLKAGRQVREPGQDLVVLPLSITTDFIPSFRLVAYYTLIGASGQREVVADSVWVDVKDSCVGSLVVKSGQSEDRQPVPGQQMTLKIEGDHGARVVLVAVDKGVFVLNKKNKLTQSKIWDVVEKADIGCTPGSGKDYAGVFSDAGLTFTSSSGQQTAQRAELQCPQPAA
T1 sequence (P01024 749-1663, chain 2 of 2): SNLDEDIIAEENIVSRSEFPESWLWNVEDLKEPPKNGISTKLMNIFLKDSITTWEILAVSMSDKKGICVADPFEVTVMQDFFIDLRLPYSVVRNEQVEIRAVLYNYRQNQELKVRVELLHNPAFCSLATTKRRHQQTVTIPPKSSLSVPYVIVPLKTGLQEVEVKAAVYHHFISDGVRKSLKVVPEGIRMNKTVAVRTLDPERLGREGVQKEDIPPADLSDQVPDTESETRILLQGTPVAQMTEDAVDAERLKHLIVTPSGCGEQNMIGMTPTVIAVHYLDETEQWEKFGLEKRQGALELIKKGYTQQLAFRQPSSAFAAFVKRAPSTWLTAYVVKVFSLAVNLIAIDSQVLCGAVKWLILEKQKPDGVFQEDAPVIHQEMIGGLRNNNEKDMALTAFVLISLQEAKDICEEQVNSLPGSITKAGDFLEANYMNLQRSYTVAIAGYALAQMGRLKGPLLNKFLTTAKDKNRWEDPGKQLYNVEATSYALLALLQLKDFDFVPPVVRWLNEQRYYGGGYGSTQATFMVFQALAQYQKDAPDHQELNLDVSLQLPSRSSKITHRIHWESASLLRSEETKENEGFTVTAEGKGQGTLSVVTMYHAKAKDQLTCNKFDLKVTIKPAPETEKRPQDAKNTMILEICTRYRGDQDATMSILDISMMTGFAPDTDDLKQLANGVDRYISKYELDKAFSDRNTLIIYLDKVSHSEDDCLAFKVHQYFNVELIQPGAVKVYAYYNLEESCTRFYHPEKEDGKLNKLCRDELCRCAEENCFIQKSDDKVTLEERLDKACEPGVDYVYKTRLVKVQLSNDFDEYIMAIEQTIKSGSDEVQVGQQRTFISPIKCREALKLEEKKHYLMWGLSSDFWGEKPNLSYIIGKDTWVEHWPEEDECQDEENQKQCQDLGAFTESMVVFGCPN

B1: Sial-moss FH (protein)
chain: EDCNELPPRRNTEILTGSWSDQTYPEGTQAIYKCRPGYRSLGNIIMVCRKGEWVALNPLRKCQKRPCGHPGDTPFGTFTLTGGNVFEYGVKAVYTCNEGYQLLGEINYRECDTDGWTNDIPICEVVKCLPVTAPENGKIVSSAMEPDREYHFGQAVRFVCNSGYKIEGDEEMHCSDDGFWSKEKPKCVEISCKSPDVINGSPISQKIIYKENERFQYKCNMGYEYSERGDAVCTESGWRPLPSCEEKSCDNPYIPNGDYSPLRIKHRTGDEITYQCRNGFYPATRGNTAKCTSTGWIPAPRCTLKPCDYPDIKHGGLYHENMRRPYFPVAVGKYYSYYCDEHFETPSGSYWDHIHCTQDGWSPAVPCLRKCYFPYLENGYNQNYGRKFVQGKSIDVACHPGYALPKAQTTVTCMENGWSPTPRCIRVKTCSKSSIDIENGFISESQYTYALKEKAKYQCKLGYVTADGETSGSITCGKDGWSAQPTCIKSCDIPVFMNARTKNDFTWFKLNDTLDYECHDGYESNTGSTTGSIVCGYNGWSDLPICYERECELPKIDVHLVPDRKKDQYKVGEVLKFSCKPGFTIVGPNSVQCYHFGLSPDLPICKEQVQSCGPPPELLNGNVKEKTKEEYGHSEVVEYYCNPRFLMKGPNKIQCVDGEWTTLPVCIVEESTCGDIPELEHGWAQLSSPPYYYGDSVEFNCSESFTMIGHRSITCIHGVWTQLPQCVAIDKLKKCKSSNLIILEEHLKNKKEFDHNSNIRYRCRGKEGWIHTVCINGRWDPEVNCSMAQIQLCPPPPQIPNSHNMTTTLNYRDGEKVSVLCQENYLIQEGEEITCKDGRWQSIPLCVEKIPCSQPPQIEHGTINSSRSSQESYAHGTKLSYTCEGGFRISEENETTCYMGKWSSPPQCEGLPCKSPPEISHGVVAHMSDSYQYGEEVTYKCFEGFGIDGPAIAKCLGEKWSHPPSCIKTDCLSLPSFENAIPMGEKKDVYKAGEQVTYTCATYYKMDGASNVTCINSRWTGRPTCRDTSCVNPPTVQNAYIVSRQMSKYPSGERVRYQCRSPYEMFGDEEVMCLNGNWTEPPQCKDSTGKCGPPPPIDNGDITSFPLSVYAPASSVEYQCQNLYQLEGNKRITCRNGQWSEPPKCLHPCVISREIMENYNIALRWTAKQKLYSRTGESVEFVCKRGYRLSSRSHTLRTTCWDGKLEYPTCAKR
In the case of B1, the Kd is 0.0429 µM in assay [1], 0.051 µM in assay [2] and 0.0482 µM in assay [3].

B2: Serum derived FH (sd-FH) (protein)
chain: B1 chain with I44V
As for B2, the Kd is 0.104 µM in assay [1], 0.144 µM in assay [2] and 0.11 µM in assay [3].
